Data reported in patent publication US20240108716A1.

What was measured:
[1] = target: SARS-CoV-2 S peptide 106 (C-GGG-…) (SARS-CoV-2); test: ELISA, control for CPMV106 on immobilised peptide
[2] = target: SARS-CoV-2 S peptide 153 (C-GGG-…) (SARS-CoV-2); test: ELISA, control for CPMV153 on immobilised peptide
[3] = target: SARS-CoV-2 S peptide 386 (C-GGG-…) (SARS-CoV-2); test: ELISA, control for CPMV386 on immobilised peptide
[4] = target: SARS-CoV-2 S peptide 420 (C-GGG-…) (SARS-CoV-2); test: ELISA, control for CPMV420 on immobilised peptide
[5] = target: SARS-CoV-2 S peptide 454 (C-GGG-…) (SARS-CoV-2); test: ELISA, control for CPMV454 on immobilised peptide
[6] = target: SARS-CoV-2 S peptide 460 (C-GGG-FRKSN) (SARS-CoV-2); test: ELISA, control for CPMV460 on immobilised peptide
[7] = target: SARS-CoV-2 S peptide 469 (C-GGG-…) (SARS-CoV-2); test: ELISA, control for CPMV469 on immobilised peptide
[8] = target: SARS-CoV-2 S peptide 564 (C-GGG-…) (SARS-CoV-2); test: ELISA, control for CPMV564 on immobilised peptide
[9] = target: SARS-CoV-2 S peptide 570 (C-GGG-…) (SARS-CoV-2); test: ELISA, control for CPMV570 on immobilised peptide
[10] = target: SARS-CoV-2 S peptide 636 (C-GGG-…) (SARS-CoV-2); test: ELISA, control for CPMV636 on immobilised peptide
[11] = target: SARS-CoV-2 S peptide 820 (C-GGG-…) (SARS-CoV-2); test: ELISA, control for CPMV820 on immobilised peptide
[12] = target: SARS-CoV-2 S peptide 826 (C-GGG-…) (SARS-CoV-2); test: ELISA, control for CPMV826 on immobilised peptide
[13] = target: SARS-CoV-2 S peptide 1159 (C-GGG-…) (SARS-CoV-2); test: ELISA, control for CPMV1159 on immobilised peptide

Control plasma of the peptide ELISA of the CPMV-based COVID-19 vaccines (antibody)
endpoint IgG titer (reciprocal dilution) [1]: 400 | endpoint IgG titer (reciprocal dilution) [2]: 2130 | endpoint IgG titer (reciprocal dilution) [3]: 266 | endpoint IgG titer (reciprocal dilution) [4]: 400 | endpoint IgG titer (reciprocal dilution) [5]: 100 | endpoint IgG titer (reciprocal dilution) [6]: 1470 | endpoint IgG titer (reciprocal dilution) [7]: 1870 | endpoint IgG titer (reciprocal dilution) [8]: 1600 | endpoint IgG titer (reciprocal dilution) [9]: 1600 | endpoint IgG titer (reciprocal dilution) [10]: 100 | endpoint IgG titer (reciprocal dilution) [11]: 800 | endpoint IgG titer (reciprocal dilution) [12]: 1600 | endpoint IgG titer (reciprocal dilution) [13]: 400
